In the domain aggregation screens of Martell et al. (2025):

Test: soluble fraction after stress (log2 fold change); higher = more stays soluble; pooled small domains, quantitative proteomics
Conditions: stress: 75 degC
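Also: 20 min heating vs room temperature control held 20 min.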

Sequence | soluble fraction (log2)
HMNQEIELLLREPDFTSAARLAMAINERFTNSARAIDPTSVKVRMPEGLDQASVDFVARLEDIEMSPDT | 0.155
HMNQEQQSAVMSALKATLPDLEAALEARQFKESKQLLKTAQNQFQQLDGRNRRGFQARIQLLAGQFRELS | -0.179
HMNQIDDADRKRVVDEVAGQFSSMSLTEMRSDREKLLSRIIPQVQTTLNRLGLQTIDVEGIAREVIARVG | -0.0822
HMNQIFAPMPGLVLEVKLSEGDVVAEGESAIILEAMKMENIIKSPINGIVKKVHVKKGQTIEKNTLIISFK | -3.1
HMNQLSYTERRVLQVIEGGTTKTGEIEQALAAKMSRPTVHRALDALVGANRIHRLARGEYALGPAP | -0.501
HMNQRQKQLLSILEQQGDWMKGKALATLLAVSDRTIRSDIEKINREVEGSILSHPHKGYLLSVENRQIAET | 0.107
HMNQSKYQTIADELKSKILSGEYPENTTIPPELQLQKDYQVSRHTIRQAIALLANEGFLRKEKGSGTYVDV | -0.147
HMNQTTYTVLYSGMDPADTGKVLTALNEMGVDARTQGEDTVLVPADRADEIRLELAAQGYPTS | 0.06
HMNQYIFVLNEKGARITSFVDNTIPKEELIALAKQDYPNAADYIYSADGDSMLDEFMRGKLYVNGQFVAA | -0.843
HMNREIVVYITGAVDNPGLYRLPLDSRLDDVLKLAVLSTNADREVLNPAQKLKDGQKIVVPYIVE | -0.49
HMNRGITVIVNNEEIKMKEKAQYVVVDIFDYIDFDLTVPKGSINITLNGENTPYTASIKDGDVIEVFW | -1.09
HMNRIARRELMEQLFADNKITTQEQLQQLLRAEGVEVTQATISRDMRILNIVKVSDQNGNTYYKQMK | -0.171
HMNRIEMTEPIIIKDLSRETGIPWVAIQKRLAQDGIMANINTTIEAEKAQLIAVDYGIELAVV | -0.427
HMNRIGERIKRKRELRNLNLGELAEKVGISASALSQIEKSKSFPSVITLKSIAEQLRTTVGELIGEN | -0.191
HMNRIKIYPTPGSKVLSIENINFSLIHDFKILDIFGREVKNFTVSSEKNTKMLVDTSKLSDGLYFIFFNTF | -1.11
HMNRLEFLQGLKAELEGRVPHSIIQENLRYYDSYISDEAAKGQSEEDVVESLGGPRIIARTIVDAA | 0.267
HMNRNEFMERLEYLLSDIPQEEKADAIAYYRDYLEEAGDDAGKAIQDFGSPERIAAMIRSELAG | -0.0288
HMNRQTGTVKWFNDAKGFGFITPESGPDLFVHFRSIQGAGFKSLQEGQRVTFVAVQGQKGMQADQVQA | -0.681
HMNRTKQIYNELLFRLDQGVYPPESKFPSESQLADEFSVSKVTMNKIVSMLASSGRLSRGVRGAGTFVSSP | -1.33
HMNRYPIQTEVHAFNDDIIKEAINFEMSRGGQIFFVNNRIPQLYELENTIHRLVPDARVVIGHGQMP | -0.216
HMNSFKIYPNPSSREVVRFNQAQDVKVYDTLGKLILSAKNTSAIDTKSFNTGIYFIKTANGLTKKLIV | -0.886
HMNSGFEVFREVVNQGSFIGAANALGISAPAVSKQIKLLENRLGLLLLYRTTRNVTLTDIGKQLFDTLDNS | -1.98
HMNSKKRQAILESLRSVTDHPTAEMIYNRLKPEYPDLSLGTVYRNLAMFLEEGQVISVGTVDGQERYDAR | -0.564
HMNSKSFIFHIEDEEGIRLDVFLADNLPDVSRSYVQKLIDEEHVKVNGQSAKSRLKTVSGMEITVDVPAPK | -0.56
HMNSLGYSDFVVDVQNERVASVVIEGLIINGERRDGTKFRTVLPTIGDQRLMDDLINHNVKVLARE | -0.375
HMNSLTVPDITNRTLAEASQVLLDMGLTPIPDAVAKDGVGDDVVYAQSPPPNVGAREGDVVTITYNPA | 0.452

Sequence | soluble fraction (log2)
HMNSNISYSEFLSQVEKGTINSVEITGNSIKGIYADGGEFITFSPGDPGLIDKLQRSDIEILATPPA | 0.233
HMNSPSKVIDISQLRKGMFVQLDLGWMSHPFAVGSFKVSTDEQIQTLRGLGLSEVRYIPEKSDPA | -1.2
HMNSQSGKGGVGYILETKYGLNLPPKMREAMGYAAKGVSDHLHKELHPDEIFDLFKKTFENVGQPYS | -0.271
HMNSSLLGKRIKSLREDHDLTQKELSLMIGLTPKMISFYENNQRTPPLDILLKLAKIFEVSVDYLIGYA | -0.615
HMNSTRAPYLLDFEEDAAIREARRAGLVPRIARQPSGEPVGRVILQSHDYDYPMKRGDTILITISSG | -0.833
HMNSTSGIAGVGYWINQYRKKKGMSPVDKKSPLVRRVYDWVQEQYDEGRITIISDAELTRQTELAMEA | -0.482
HMNSVAASLREISIKVSGTEDADKVSRLQELSQMPKLDASGIAEANTLLEQLRAKYGDLGLSVDTARGRIV | 0.494
HMNSVSIAPEMLNWVIAHIQMNSLPKQIVEHLTAWISGQKEPTFNQIEKVSRATGIPLGYFFLEQPPKE | -2.51
HMNSYKGELLVDDKNIRLDLYLFNQFNFFSRTKIKNYILKGNVLVNNNKTSPSYILKGSEKIYYDFSVS | -3.21
HMNTEVDKVLLRSGEAYFGEVLLRNDELVMMKTQDGARFQFPVSEIKSIEKVSVADALRHINS | 0.263
HMNTGFPIILETSDAANLTVGAPIMYRGVEVGKIRNMELNSLGDRVLIHILIGHKYQHLVRQNSEFWFSS | -4
HMNTKDRIKQLAAQRKITIAELERKLHIANGTIGKWDKQNPSIEPLKKLADYFGVTTDYLLGRT | -0.381
HMNTKLKPLYLLDIFREMTDERHRMTVPELLEELQRRGITAERKGIYRDIDALIQYGADIKHTGTGYYLAR | -0.93
HMNTKLSYSDLIEKIEAGQVEKVELDAGGSSAIVKLKNDNIEKRVNVPSIDNLMENLQDNMKTGNISVTE | 0.168
HMNTLLGLSNSFQDNKDLENANSISRRFISYRPRSEAELRIRLLKVFSHEIVLESVAQMYREGLLNDQRF | -3.18
HMNTLTKEDIQKAIDVIPIDFKSVVILNLVEGFSYKETAEILEIPIGTVMSRLHRGRKILQKLLWEYSSSK | -1.4
HMNTTTTKVVSVSSLNMRSGPSTSYNIIEVLTKDTQVEVISVEDGWAKIKYNSKTGYVSNQYLSDKK | -0.934
HMNTVAKELATQATQAKKRAFLDAYAETGIIKRAAEIAGIERKSHYLWLEKDPEYVEAFKSAGEQ | 0.427
HMNTVSVGNLGLSVRAVNALKQAGIDTYDKLQELSWEELLLIPKLGQVTAAEIYRFITSYKKG | -1.56
HMNVAETITLGKRLFNHALTILGKKQRNISRKQLKNFLNDLGLKDSKDLYESIGTGDKNPILMAQLLLG | -0.512
HMNVAVGNSKLVGVAGERAYFVNGVGAAARTLSLQVGDALPTGEKVRRIERDGVTMTGASGDVRLSVLP | 0.00812
HMNVDALIGTKGIVVQPIRPFAVGQVKVNGQVWSAVGKTPETDIEQGREVKVHAIEGVKLVVTPT | 0.501
HMNVDALVGMPARVTRAFVQGAGEVKLDNGETWTARLSAGVTDAEASVGQTVSVIAVRGAAVEVAPE | 0.0183
HMNVDSLIGKKARVLEDIDNLNAKGQVSIDGMEWTARSEDGSEIKKDALVEVVAIEGVKAIVKQ | 0.242
HMNVEQQNQARENIKRLMEEQGLSQPKLSEKAGIAFGTLSRILRGKQDLTIQTAEKIADALGLSVYDLAE | 0.31
HMNVKVSVDDIARPGLMASGRVTFADGNRGMWYVDEMGRLGIDPEVEGYQPSEADIQAFQRELQSVMES | -0.00333

Sequence | soluble fraction (log2)
HMNVNSQQINDLEKSIQKFFDKDIKNYLNQNLSNDRMISKNEIDKIILLYYGSDKEPTLDEIKSIFN | -0.216
HMNVNTHKTLILNSTFQPLSLATPQRALALLFSKKINVLKESDIKLRSVGQSVAIPKVAVLTYFVKA | -0.409
HMNVPFGYTIKDGLLVEQPDEKAILDNILTWKKGQMTVAEIAKKTGMETWKIYGILNYWRNK | -1.14
HMNVRAYKVSKESELTVEEKLEAVRGYGVADLLYVIREFEENPGKYEPEVIKLIVQQLTDKGIM | 0.0392
HMNVRRSRTHEKVTTYQGYDIFINKEPNQRGMFTSAPMRGDNEYSNLRGEGKSKQDAVNMTKEKIDEIAA | 0.748
HMNVSVSITKELQVYINDERISSSALESTLKSKLAGIENPTIILRAEEGVPIEKAVNVMDIANRNRYKIVL | -1.32
HMNVYAGTMINVVGLQVEDAASRLRGLFYSVKIVEEESQEPDGKVLRQNIAEGTKDLEAWTLVELTVSKYV | -2.73
HMNVYEVKFGDTLDEIIKTYLFDIPVKKSILRQAVILANPHAFRRNNPHWMYSDRQLKLPELQDIRRAIF | -0.317
HMNYGDVIEGQIMHVDRDELLVDIGSKSEGIIPAREFSTLTDEERAALSVGDHVLVFVVQAENQEGQAV | 0.297
HMNYIEWKNTFKKYLYLLPIKEEKETLAYFDEQYNKLNPKDLDNVENIFSDPIDKAAFVVAFYLEMEDEIK | -0.895
HMNYIGADAAKNMAAADAQVDTANASFSGANLGEKNGLSYYQVDFTANGREYHYAIDAMTGTVIESSSAAS | 0.122
HMNYNEKGEYTRTLTSGSETAVMTYRNFGETLDVALFKNGVQTDSLRLIKSEPGVLYRQSNGQFEKI | -0.158
HMNYSIVNVGFNNKSLFLRSAPGYSASRLLLPFATERAFVRETLSNGWSRVIVRGTEGYLPTEYVAD | 0.345
HMNYSKQRETILKVLRSTRSHPSVNWIYENVKKEIPDVGLATVYRNLKQLEAAGEIMRIQGDFPEERWDGF | -1.65
HMNYTALLNNFSENMKKRRVELSLSQKELASIVGVSVRTIQNYENKKTIPTSAVMESISIALDMGLEKMID | -1.91
HMNYTQAQIDRANAVSLEDFLRTQGETLIKSGREYRWKEHDSLTVRGNKWFRHSQSKGGYPIDFVMEFTA | 0.108
HMNYYYKDNQYWYVGFRYDERLVKEIKRFVGAGYNPENKEWYIPFTLPTVAPLQKWLHDNGFVEGMNYYP | -2.56
HMPAAFALLTDREREIAALIAQRLTNREIAEKLYLSEGSVKQYVNQLYAKLGIEGDTRTKRRRLAEQAK | -0.641
HMPAAKARTWQEATHAFQRDFLLETLRRARFNAADAADQLGLARPALYTTAKRLGLDLVAERQRWEAEAH | -0.668
HMPAAPVFLQKDLLDAGLIGQADSAARREKLGKILGIGYGNGKVMLQRLNSFGIERDAFEQAVQE | 0.081
HMPAASDALAGELAQIARLDIAKLLAGDLSEADWSRITSATVQLSERHPDASDELTALVERIDTAYSARAT | 0.0397
HMPAEGWEASGDTWRYRQKDGSYITNAWVQDTDGKWYYFDESSLMVRNQTTSDGYYVGEDGVWTET | -0.136
HMPAELGVVVRNANLRSGPGTKYAIVGSAPAGTTVRIAGTNKAGDWYHLSSGRWIAAFLVDRN | -1.99
HMPAERLSMRKIYEILRLKYGHGLSNREVALSVSVSRSTVADYLLRAQAAGLSWPLPDGLDETGLEQRLFP | -3.96
